Where two headings read alike, the source gives them in different places.
T1: S100B (Homo sapiens, UniProt P04271)
T1 chain: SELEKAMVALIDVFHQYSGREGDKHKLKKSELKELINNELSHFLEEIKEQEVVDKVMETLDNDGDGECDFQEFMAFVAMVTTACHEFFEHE

T2: S100A11 (Homo sapiens, UniProt P31949)
T2 chain: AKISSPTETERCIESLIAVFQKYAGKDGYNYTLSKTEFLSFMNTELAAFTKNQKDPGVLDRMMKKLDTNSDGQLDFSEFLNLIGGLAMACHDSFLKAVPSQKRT


Experiments:
Test in all cases: HSQC-NMR titration
[1] = target: T1, S100B
[2] = target: T1, S100B
[3] = target: T2, S100A11

| Kd [1] | Kd [2] | Kd [3] | Binder |
| --- | --- | --- | --- |
| ~2650 nM | ~2800 nM | – | S100A11 (protein, Ca2+, monomers after urea denaturation/renaturation) AKISSPTETERCIESLIAVFQKYAGKDGYNYTLSKTEFLSFMNTELAAFTKNQKDPGVLDRMMKKLDTNSDGQLDFSEFLNLIGGLAMACHDSFLKAVPSQKRT |
| – | – | ~2500 nM | S100B (protein, Ca2+, monomers after urea denaturation/renaturation) SELEKAMVALIDVFHQYSGREGDKHKLKKSELKELINNELSHFLEEIKEQEVVDKVMETLDNDGDGECDFQEFMAFVAMVTTACHEFFEHE |

Reference: article PMC6644751 (2018)
